Conditions: Thermal, whole UniProt chain shown
[1] = Glycine max, pH 7, DSC, HEPES/MOPS/ACES/Tris/triethanolamine/phosphate 17 mM/17 mM/17 mM/10 mM/13 mM/10 mM
[2] = Bos taurus, pH 6.5, Absorbance, None, reversible: no
[3] = Bos taurus, pH 7.4, Absorbance, phosphate, reversible: no

B1: Trypsin inhibitor B wild type, P01071 (protein)
chain: DFVLDNEGNPLSNGGTYYILSDITAFGGIRAAPTGNERCPLTVVQSRNELDKGIGTIISSPFRIRFIAEGNPLRLKFDSFAVIMLCVGIPTEWSVVEDLPEGPAVKIGENKDAVDGWFRIERVSDDEFNNYKLVFCTQQAEDDKCGDIGISIDHDDGTRRLVVSKNKPLVVQFQKVDKESL
Tm [1]: 59 °C
heat capacity change of unfolding [1]: 2.63 kcal/mol/K
unfolding enthalpy (calorimetric) [1]: 103 kcal/mol

B2: Beta-lactoglobulin wild type, P02754 (protein)
chain: MKCLLLALALTCGAQALIVTQTMKGLDIQKVAGTWYSLAMAASDISLLDAQSAPLRVYVEELKPTPEGDLEILLQKWENGECAQKKIIAEKTKIPAVFKIDALNENKVLVLDTDYKKYLLFCMENSAEPEQSLACQCLVRTPEVDDEALEKFDKALKALPMHIRLSFNPTQLEEQCHI
Tm (Bos taurus, pH 4, DSC, Unknown): 82 °C
Tm [2]: 80.1 °C
unfolding enthalpy (van 't Hoff) [2]: 55.5 kcal/mol
Tm [3]: 65.9 °C
unfolding enthalpy (van 't Hoff) [3]: 39.9 kcal/mol

B3: Tryptophan synthase alpha chain wild type, P0A877 (protein)
chain: MERYESLFAQLKERKEGAFVPFVTLGDPGIEQSLKIIDTLIEAGADALELGIPFSDPLADGPTIQNATLRAFAAGVTPAQCFEMLALIRQKHPTIPIGLLMYANLVFNKGIDEFYAQCEKVGVDSVLVADVPVEESAPFRQAALRHNVAPIFICPPNADDDLLRQIASYGRGYTYLLSRAGVTGAENRAALPLNHLVAKLKEYNAAPPLQGFGISAPDQVKAAIDAGAAGAISGSAIVKIIEQHINEPEKMLAALKVFVQPMKAATRS
Tm (Escherichia coli (strain K12), pH 8.98, DSC, sodium tetraborate 1 mM): 54.2 °C
